According to patent US20120093835A1 (DECIMMUNE THERAPEUTICS, published 2012):
Where no end group is shown, it is not given here.

T1: N2 peptide (Ac-LMKNMDPLNDNV), N2 self-peptide of Mouse NMHC-IIB (592-603) (mouse (the filing says the region is …, not fully specified; printed as Ac-LMKNMDPLNDNV)
T1 peptide: Ac-LMKNMDPLNDNV


Target: T1, N2 peptide (Ac-LMKNMDPLNDNV), N2 …
Experiment: not described (in vitro and in vivo binding of hybridoma antibody to N2 peptide)

binding result | Binder
binds | IgG^12A6 (12A6 IgG), antibody produced by murine B-cell hybridoma 12A6 (ATCC PTA-9392) (antibody, V domains shown, also called 12A6 hybridoma antibody; anti-N2 antibody (12A6)) VH: QVTLKESGPGILQPSQTLSLTCSFSGFSLSTFGIGVGWIRQPSGKGLEWLAHIWWNDNNYYNTSLKSRLTISKDTSNNQVFLKIASVDTADTATYYCARVGGINFSMDYWGQGTSVTVSS VL: DIVMTQSASSLAVSAGEKVTMNCKSSQSVLYSSNQKNYLAWYQQKPGQSPKLLIYWASTRESGVPDRFTGSGSGTDFTLTISSVQAEDLAVYYCHQYLSSWTFGGGTKLEIKR
binds | IgG^21G6 (21G6 IgG), antibody produced by murine B-cell hybridoma 21G6 (ATCC PTA-9393) (antibody, V domains shown, also called anti-N2 mAb) VH: QVQLQESGAELVKPGASVKLSCKASGYTFTSYYMYWVKQRPGQGLEWIGGINPSNGGTNFNEKFKSKATLTVDKSSSTAYMQLSSLTSEDSAVYYCTRWGYDREWFAYWGQGTLVTVSA VL: DIVMTQAAPSVPVTPGESVSISCRSSKSLLHSNGNTYLYWFLQRPGQSPQVLIYRMSNLASGVPDRFSGSGSGTAFTLRISRVEAEDVGVYYCMQHLEYPFTFGSGTKLEIKR
